Laboratory results published in patent US20240376207A1 (JIANGSU HENGRUI PHARMACEUTICALS, published 2024).
Like-named read-outs stand apart in the source and are kept apart here.

T1: human TIGIT recombinant protein (human, UniProt Q495A1 22-141, limits assumed)
T1 construct: construct not described; also called human TIGT recombinant protein
T1 sequence (looked up): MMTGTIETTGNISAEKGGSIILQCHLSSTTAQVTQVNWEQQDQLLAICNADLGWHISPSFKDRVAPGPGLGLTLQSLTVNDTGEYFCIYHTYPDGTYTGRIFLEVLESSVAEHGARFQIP

T2: human TIGIT expressed on cells (human, UniProt Q495A1 22-244)
T2 construct: whole, on cells; also called cells overexpressing human TIGIT
T2 sequence (looked up): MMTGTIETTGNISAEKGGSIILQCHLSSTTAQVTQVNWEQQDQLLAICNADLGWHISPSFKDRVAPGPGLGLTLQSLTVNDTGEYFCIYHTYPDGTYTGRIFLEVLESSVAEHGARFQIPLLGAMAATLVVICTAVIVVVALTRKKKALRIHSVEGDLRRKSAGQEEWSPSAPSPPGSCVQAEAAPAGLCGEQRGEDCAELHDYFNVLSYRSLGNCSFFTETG

T3: his-tagged cynomolgus monkey PVRIG (cyno-PVRIG-his) recombinant protein (cynomolgus monkey)
T3 construct: expressed in HEK293, purified by Ni-NTA; also called Monkey PVRIG-his; cynomolgus monkey PVRIG recombinant protein
T3 chain: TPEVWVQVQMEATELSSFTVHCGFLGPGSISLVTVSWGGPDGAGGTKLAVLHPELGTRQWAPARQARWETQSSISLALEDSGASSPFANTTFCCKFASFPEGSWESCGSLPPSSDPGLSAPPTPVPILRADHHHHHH

T4: cynomolgus monkey PVRIG expressed on cells (cynomolgus monkey, UniProt A0A2K5WVV8 1-322)
T4 construct: whole, on cells; also called Monkey PVRIG FACS; cells overexpressing cynomolgus monkey PVRIG
T4 sequence: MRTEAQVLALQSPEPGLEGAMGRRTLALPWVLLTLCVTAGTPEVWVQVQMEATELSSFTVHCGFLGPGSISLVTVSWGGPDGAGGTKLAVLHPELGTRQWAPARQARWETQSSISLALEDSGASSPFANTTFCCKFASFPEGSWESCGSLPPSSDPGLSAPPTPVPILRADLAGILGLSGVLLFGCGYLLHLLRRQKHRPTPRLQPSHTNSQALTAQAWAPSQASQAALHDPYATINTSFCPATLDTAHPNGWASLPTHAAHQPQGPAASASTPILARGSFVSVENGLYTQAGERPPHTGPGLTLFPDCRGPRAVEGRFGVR

T5: human TIGIT antigen (AcroBiosystem, TIT-H52H3) (human, UniProt Q495A1 22-141)
T5 sequence (looked up): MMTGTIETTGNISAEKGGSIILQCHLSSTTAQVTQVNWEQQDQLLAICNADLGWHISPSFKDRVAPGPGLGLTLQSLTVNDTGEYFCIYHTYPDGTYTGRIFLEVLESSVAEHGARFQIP

B1: anti-PVRIG/TIGIT bispecific antibody 1708-151-4 (bispecific antibody, human IgG4 S228P, kappa)
heavy: not shown
light: DIQMTQSPSSLSASVGDRVTITCRASENIYSYLAWYQQKPGKSPKLLIYNARTLAEGVPSRFSGSGSGTDFTLTISSLQPEDFATYYCQYHSGSPLPFGGGTKVEIKRTVAAPSVFIFPPSDEQLKSGTASVVCLLNNFYPREAKVQWKVDNALQSGNSQESVTEQDSKDSTYSLSSTLTLSKADYEKHKVYACEVTHQGLSSPVTKSFNRGECGGGGSGGGGSHVQLVESGGGSVQAGGSLRLSCVASASGFTYRPYCMAWFRQAPGKEREAVAGIDIFGGTTYADSVKGRFTASRDNAGFSLFLQMNDLKPEDTAMYYCAAGDSPDGRCPPLGQGLNYWGQGTQVTVSS
B2: anti-TIGIT antibody 1708 (antibody, human IgG4 S228P, kappa, V domains shown)
VH: EVQLVQSGAEVKKPGASVKVSCKASGYTFTNYWMHWVRQAPGQGLEWMGRIDPDSTGSKYNEKFKTRVTMTRDTSTSTVYMELSSLRSEDTAVYYCAREGAYGYYFDYWGQGTLVTVSS
VL: DIQMTQSPSSLSASVGDRVTITCRASENIYSYLAWYQQKPGKSPKLLIYNARTLAEGVPSRFSGSGSGTDFTLTISSLQPEDFATYYCQYHSGSPLPFGGGTKVEIKR
notes: human IgG4 subtype with S228P; kappa light chain
B3: anti-PVRIG/TIGIT bispecific antibody 1708-151-3 (bispecific antibody, human IgG4 S228P, kappa)
heavy: not shown
light: HVQLVESGGGSVQAGGSLRLSCVASASGFTYRPYCMAWFRQAPGKEREAVAGIDIFGGTTYADSVKGRFTASRDNAGFSLFLQMNDLKPEDTAMYYCAAGDSPDGRCPPLGQGLNYWGQGTQVTVSSGGGGSGGGGSDIQMTQSPSSLSASVGDRVTITCRASENIYSYLAWYQQKPGKSPKLLIYNARTLAEGVPSRFSGSGSGTDFTLTISSLQPEDFATYYCQYHSGSPLPFGGGTKVEIKRTVAAPSVFIFPPSDEQLKSGTASVVCLLNNFYPREAKVQWKVDNALQSGNSQESVTEQDSKDSTYSLSSTLTLSKADYEKHKVYACEVTHQGLSSPVTKSFNRGEC
B4: humanized anti-PVRIG/TIGIT bispecific antibody 1708-151H8 (bispecific antibody, human IgG4 S228P, kappa)
heavy: not shown
light: DIQMTQSPSSLSASVGDRVTITCRASENIYSYLAWYQQKPGKSPKLLIYNARTLAEGVPSRFSGSGSGTDFTLTISSLQPEDFATYYCQYHSGSPLPFGGGTKVEIKRTVAAPSVFIFPPSDEQLKSGTASVVCLLNNFYPREAKVQWKVDNALQSGNSQESVTEQDSKDSTYSLSSTLTLSKADYEKHKVYACEVTHQGLSSPVTKSFNRGEC
B5: humanized anti-PVRIG/TIGIT bispecific antibody 1708-39H2 (bispecific antibody, human IgG4 S228P, kappa)
heavy: not shown
light: DIQMTQSPSSLSASVGDRVTITCRASENIYSYLAWYQQKPGKSPKLLIYNARTLAEGVPSRFSGSGSGTDFTLTISSLQPEDFATYYCQYHSGSPLPFGGGTKVEIKRTVAAPSVFIFPPSDEQLKSGTASVVCLLNNFYPREAKVQWKVDNALQSGNSQESVTEQDSKDSTYSLSSTLTLSKADYEKHKVYACEVTHQGLSSPVTKSFNRGEC

Assays:
[1] = target: T1, human TIGIT recombinant protein; test: ELISA, coated antigen
Protocol: (§1) A human, cynomolgus monkey, or mouse PVRIG protein (at a concentration of 1 μg/mL) was coated on a 96-well microplate at 100 μL per well, and incubated overnight at 4° C. The plate was washed three times with wash buffer at 250 μL per well. For each wash, the plate was shaken for 10 s to ensure adequate cleaning. A blocking solution (PBS+0.05% Tween20+1% BSA) was added at 300 μL/well, and the plate was incubated at room temperature for 1 h. The plate was washed three times with wash buffer at 250 μL per well. For each wash, the plate was shaken for 10 s to ensure adequate cleaning. Dilutions of the test anti-PVRIG antibodies were added at 100 μL/well. The plate was incubated at 37° C. for 1 h. The plate was washed three times with wash buffer at 250 μL per well. The […] anti-human IgG secondary antibody (Sigma, A8667) was added at 100 μL per well. The plate was incubated at 37° C. for 1 h. The plate was washed three times with wash buffer at 250 μL per well. TMB was added at 100 μL/well, and the plate was incubated in the dark for 15 min. 0.16 M sulfuric acid was added at 50 μL/well. The OD values at 450 nm were read by using a Thermo MultiSkanFc microplate reader, and the EC₅₀ values of the binding of the anti-PVRIG antibodies to PVRIG were calculated.
(§2) The experiments were carried out according to the methods of Example 4, Example 5 and Example 6 (corresponding receptors and ligands were replaced with human TIGIT and human PVR), and the results are shown in Table 27.

[2] = target: T2, human TIGIT expressed on cells; test: FACS, cells overexpressing target
Protocol: (§3) The expression plasmid carrying human or cynomolgus monkey PVRIG gene sequence was transfected into HEK293 cells, and the over-expressing stable transfection monoclonal cell strain was obtained by antibiotic screening and infinite dilution. Overexpressing cells were seeded into a 96-well plate at 2×10⁵ cells/per well. The cells were centrifuged at 300 g for 5 min, the supernatant was then removed, 100 μL of the test antibody was added, and the mixture was incubated at 4° C. for 1 h. The mixture was centrifuged, the supernatant was removed, the plate was washed 3 times with 200 μL of wash buffer (PBS+2% FBS), and then 100 μL of an anti-human IgG secondary antibody (Invitrogen, A-11013) labeled with Alexa Fluor 488 diluted at 1:500 was added. The mixture was incubated at 4° C. for 1 h. The plate was centrifuged, and the supernatant was removed. The plate was washed 3 times with 200 μL of wash buffer (PBS+2% FBS). The cells were resuspended in 100 μL of PBS and tested on a flow cytometer (BD FACS Calibur or BD FACS Canto_II).
as §2

[3] = target: T1, human TIGIT recombinant protein; test: competition ELISA; human TIGIT, competitor human PVR
Protocol: (§4) The h-PVRIG-mIgG2a Fc protein (at a concentration of 1 μg/mL) was coated on the 96-well microplate at 100 μL per well, and incubated overnight at 4° C. The plate was washed three times with wash buffer at 250 μL per well. For each wash, the plate was shaken for 10 s to ensure adequate cleaning. A blocking solution was added at 300 μL/well, and the plate was incubated at room temperature for 1 h. The plate was washed three times with wash buffer at 250 μL per well. For each wash, the plate was shaken for 10 s to ensure adequate cleaning. 50 μL of diluted test anti-PVRIG antibody and 50 μL of his-tagged ligand PVRL2 were added to each well, and the plate was incubated at 37° C. for 1 h. The plate was washed three times with wash buffer at 250 μL per well. The HRP-labeled anti-his-tagged secondary antibody (Genscrpit) diluted at 1:2000 was added at 100 μL per well. The plate was incubated at 37° C. for 1 h. The plate was washed three times with wash buffer at 250 μL per well. TMB was added at 100 μL/well, and the plate was incubated in the dark for 15 min. 0.16 M sulfuric acid was added at 50 μL/well. OD values at 450 nm were measured using a Thermo MμtLtiSkanFc microplate reader, and the IC₅₀ values of the anti-PVRIG antibodies blocking the binding of PVRIG to PVRL2 were calculated.
as §2

[4] = target: T3, his-tagged cynomolgus monkey PVRIG …; test: ELISA, coated antigen
Protocol: as §1
(§5) Binding of the humanized anti-PVRIG/TIGIT bispecific antibodies to human and cynomolgus monkey PVRIG and their blocking of the ligand of human PVRIG were detected according to the methods of Examples 4, 5 and 6.

[5] = target: T1, human TIGIT recombinant protein; test: ELISA, coated antigen; remark: listed apart in the source
Protocol: as §1
(§6) Similarly to Examples 4, 5 and 6, the binding of humanized anti-PVRIG/TIGIT bispecific antibodies to human and cynomolgus monkey TIGIT and blocking of binding of human TIGIT to ligand were detected, where PVRIG protein was replaced with TIGIT and PVRL2 was replaced with PVR.

[6] = target: cynomolgus monkey TIGIT recombinant protein (cynomolgus monkey, UniProt A0A7N9I9V4 89-209); test: ELISA, coated antigen
Protocol: as §1, §6

[7] = target: T4, cynomolgus monkey PVRIG expressed on …; test: FACS, cells overexpressing target
Protocol: as §3, §5

[8] = target: T2, human TIGIT expressed on cells; test: FACS, cells overexpressing target; remark: listed apart in the source
Protocol: as §3, §6

[9] = target: T6, cynomolgus monkey TIGIT expressed on cells (cynomolgus monkey, UniProt A0A7N9I9V4 89-312); test: FACS, cells overexpressing target
T6 construct: whole, on cells; also called cells overexpressing cynomolgus monkey TIGIT
Protocol: as §3, §6

[10] = target: T1, human TIGIT recombinant protein; test: competition ELISA; human TIGIT, competitor human PVR; remark: listed apart in the source
Protocol: as §4, §6

[11] = target: T5, human TIGIT antigen (AcroBiosystem, …); test: SPR (Biacore X100), antibody captured on Protein A chip, 1:1 fit
Excerpt: The affinity of the humanized bispecific antibodies for human PVRIG, cynomolgus monkey PVRIG and human TIGIT was detected using Biacore. Humanized bispecific antibodies were each captured on a Protein A biosensor chip (GE lifesciences, 29127557) of a Biacore instrument (Biacore X100, GE), and then human PVRIG antigen (AcroBiosystem, PVG-H52H4), cynomolgus monkey PVRIG antigen (SEQ ID NO: 1), or human TIGIT antigen (AcroBiosystem, TIT-H52H3) at a series of concentration gradients each flowed over the chip surface. The reaction signals were detected in real time using a Biacore instrument (Biacore X100, GE) to obtain association and dissociation curves. The data obtained from the experiment were fitted using the (1:1) Binding model with the BiacoreX100 evaluation software 2.0 GE to obtain affinity values (see Table 31).

| EC50 [1] [nM] | EC50 [2] [nM] | IC50 [3] [nM] | binding result [4] | EC50 [5] [nM] | EC50 [6] [nM] | binding result [7] | EC50 [8] [nM] | EC50 [9] [nM] | IC50 [10] [nM] | Kd [11] [nM] | koff [11] [s⁻¹] | kon [11] [M⁻¹ s⁻¹] | Binder |
| --- | --- | --- | --- | --- | --- | --- | --- | --- | --- | --- | --- | --- | --- |
| 0.054 | 1 | 0.69 |  |  |  |  |  |  |  |  |  |  | B1 |
| 0.055 | 0.74 | 0.87 | no binding | 0.133 | 0.104 | no binding | 0.0027 | 0.003 | 0.779 |  |  |  | B2 |
| 0.069 | 1.92 | 0.62 |  |  |  |  |  |  |  |  |  |  | B3 |
|  |  |  |  | 0.184 | 0.135 |  | 0.006 | 0.011 | 1.09 |  |  |  | B4 |
|  |  |  |  | 0.135 | 0.105 |  | 0.005 | 0.005 | 0.812 | 0.0808 | 0.000113 | 1.39e+06 | B5 |
